Test results as given in paper PMC6826206.

Tested on: hcGAScat-WT (human)
Test: fluorescence anisotropy
Conditions: reference; EMSA: 25 mM Tris-HCl pH 7.5, 1 mM DTT, 100 ug/ml BSA, 1 mM MgCl2, 45 mM KCl, 37 C 10 min, 7% PAGE in TAE at 4 C; FA: 5-10 nM FAM-dsDNA, Hill fit, buffer not …

dsDNA24
binding signal (relative to WT): 1
